PMC9279676, “ERK2 MAP kinase regulates SUFU binding by multisite phosphorylation of GLI1” (Life Science Alliance, 2022)

B1: GLI1_(1-232), wild type, 35S-radiolabeled [modified: [35S]-methionine label; [35S]-methionine label] [human] / GST-SUFU (fusion of GST to full-length human SUFU) [human] (parent complex)
chain 1: MFNSMTPPPISSYGEPCCLRPLPSQGAPSVGTEGLSGPPFCHQANLMSGPHSYGPARETNSCTEGPLFSSPRSAVKLTKKRALSISPLSDASLDLQTVIRTSPSSLVAFINSRCTSPGGSYGHLSIGTMSPSLGFPAQMNHQKGPSPSFGVQPCGPHDSARGGMIPHPQSRGPFPTCQLKSELDMLVGKCREEPLEGDMSSPNSTGIQDPLLGMLDGREDLEREEKREPESV
chain 2: MAELRPSGAPGPTAPPAPGPTAPPAFASLFPPGLHAIYGECRRLYPDQPNPLQVTAIVKYWLGGPDPLDYVSMYRNVGSPSANIPEHWHYISFGLSDLYGDNRVHEFTGTDGPSGFGFELTFRLKRETGESAPPTWPAELMQGLARYVFQSENTFCSGDHVSWHSPLDNSESRIQHMLLTEDPQMQPVQTPFGVVTFLQIVGVCTEELHSAQQWNGQGILELLRTVPIAGGPWLITDMRRGETIFEIDPHLQERVDKGIETDGSNLSGVSAKCAWDDLSRPPEDDEDSRSICIGTQPRRLSGKDTEQIRETLRRGLEINSKPVLPPINPQRQNGLAHDRAPSRKDSLESDSSTAIIPHELIRTRQLESVHLKFNQESGALIPLCLRGRLLHGRHFTYKSITGDMAITFVSTGVEGAFATEEHPYAAHGPWLQILLTEEFVEKMLEDLEDLTSPEEFKLPKEYSWPEKKLKVSILPDVVFDSPLH

Variants of: B1
Test: GST-SUFU pull-down binding assay with 35S-radiolabeled in vitro-translated GLI1; parent: 8 nM

| Kd [nM] | Variant |
| --- | --- |
| 67 | chain 1 S102E |
| 21 | chain 1 S130E |
